Assay results as given in PMC2248197.
“And” between values parts separate entries of the source, which are not always exact repeats. Identical values can stand only once.

Target: Xop411 p09, major capsid subunit (major coat protein) (Xanthomonas oryzae phage Xop411)
Assay: SDS-PAGE of virion proteins with LC-MS/MS of the bands

Substance: Xop411 p09, major capsid subunit (major coat protein) (natural protein)
- stoichiometry N: 2 subunits and 6 subunits
